According to the DeepSol protein solubility set:

Assay: soluble on expression in E. coli; label from the status in PepcDB or PDB records

For “MISICLVNTYDKLKKHEIHLRSIARAAPLCYAFNFHLALLDFPFWRSEKEVAEEVANYTTIGEGGKYLLYLAESGKLHLIDKIPAHFGEVVATTSKPDPDKVVNPDTLAAFKSATFLIGLGRRGLPREMLKSAKYHLDVTRKGVSLETCSAIGAIAMLLAVKVVG”, which “soluble on expression in E. coli” value is on record?
Its value is “not soluble”.

Which “soluble on expression in E. coli” value does the source give for “ADQRIKVAKPVVEMDGDEMTRIIWQFIKEKLILPHVDVQLKYFDLGLPNRDQTNDQVTIDSALATQKYSVAVKCATITPDEARVEEFKLKKMWKSPNGTIRNILGGTVFREPIICKNIPRLVPGWTKPITIGRHAHGDQYKATDFVVDRAGTFKIVFTPKDGSSAKQWEVYNFPAGGVGMGMYNTDESISGFAHSCFQYAIQKKWPLYMSTKNTILKAYDGRFKDIFQEIFEKHYKTDFDKYKIWYEHRLIDDMVAQVLKSSGGFVWACKNYDGDVQSDILAQGFGSLGLMTSVLVCPDGKTIEAEAAHGTVTRHYREHQKGRPTSTNPIASIFAWTRGLEHRGKLDGNQDLIRFAQTLEKVCVETVESGAMTKDLAGCIHGLSNVKLNEHFLNTSDFLDTIKSNLDRALGRQ” here?
The value was “soluble”.

For “MGSDKIHHHHHHANSTNTIVSTSNMASTAYTRKSATGWTYNLGGTATNMTFGKKTHYLKNYPNTTWHATKKRYIIKKNGVKYLYYYVTNGRKTAAGWIWHGYLQKKSYAHTATTTSSTGTGTYDSILKAAKTQLGKPYAYGGNGPSAFDCSGFTKYVFNQAIGQTLPRTAQAQYDSYTHVSAANAKAGDLIFFGTSASNITHCGIYLGNHKMIDAQLNGVITEATNVSWWHTVGYSRPATLS”, which “soluble on expression in E. coli” value is on record?
The value was “not soluble”.

With “SGNLLKVLTCTDLEQGPNFFLDFENAQPTESEKEIYNQVNVVLKDAEGILEDLQSYRGAGHEIREAIQHPADEKLQEKAWGAVVPLVGKLKKFYEFSQRLEAALRGLLGALTSTPYSPTQHLEREQALAKQFAEILHFTLRFDELKMTNPAIQNDFSYYRRTLSRMRINNVPAEGENEVNNELANRMSLFYAEATPMLKTLSDATTKFVSENKNLPIENTTDCLSTMASVCRVMLETPEYRSRFTNEETVSFCLRVMVGVIILYDHVHPVGAFAKTSKIDMKGCIKVLKDQPPNSVEGLLNALRYTTKHLNDETTSKQIKSMLQ” as the sequence, how does the “soluble on expression in E. coli” value read?
Its value is “soluble”.

For “MKRVMFHAKIHRATVTQADLHYVGSVTVDQDLLDAAGILPFEQVDIYDITNGARLTTYALPGERGSGVIGINGAAAHLVKPGDLVILVAYGVFDEEEARNLKPTVVLVDERNRILEVRKG”, which “soluble on expression in E. coli” value is on record?
Its value is “soluble”.

For “MSDPKPTRSQGDLAEMLEMLLDKGVVINADIAVSVGDTELLGIQLRAAVASFETAAQYGLEFPTGTDMKRVETAAGVSSDASDANSETQPETEPARETTDEHSAVSSPSSREE”, which “soluble on expression in E. coli” value is on record?
Its value is “not soluble”.

With “AKIIFIEHNGTRHEVEAKPGLTVMEAARDNGVPGIDADCGGACACSTCHAYVDPAWVDKLPKALPTETDMIDFAYEPNPATSRLTCQIKVTSLLDGLVVHLPEKQI” as the sequence, how does the “soluble on expression in E. coli” value read?
The value was “soluble”.

Which “soluble on expression in E. coli” value does the source give for “MGSDKIHHHHHHMADRASEAELIKLPVSKLTRGMFVAAIENNGKVAVANAGQIKSRETIAKLVKSGIHHVWVDAERSSDESGLKPKSAQGSAAPAAGAVRPSRANRDLRQTQAKKLLHEAKELIRKVLSETFEGKAIEVKPFEALADNMIESIMLDDDALKCVSALRDKDAYLLEHSVNVAFLLVTFGKYLKLDRETLKQMAVGGVLHDIGKIKVDNKILHKPGKLTPEEFEHMKLHQFYAMDIMSEASALSQISKDVCLMHHEKLDGRGYPRGLKGDEIPLHGRMSCIVDIFDALTATRCYKEAMSPAAAFKILLSLTPFHLDTDLVYEFIRCIGVYPVGSLVELSDGRVGIVWESKDRDALSPVVKCFYSLKHKRYTEVNFVDLLKSDLNIERGVSPSSLDVDPKPFY” here?
The value was “not soluble”.

Which “soluble on expression in E. coli” value does the source give for “MPHVICEPCIGVKDQSCVEVCPVECIYDGGDQFYIHPEECIDCGACVPACPVNAIYPEEDVPEQWKSYIEKNRKLAGLE” here?
Its value is “soluble”.

With “MEGLQRSTISFRRQGSSGIVFDDRLIAELNKSGNNEQKDESQRDEQPKPMSESSEQVKPIDEKDKLRPIKTGGGAPGGIERSRSNGGGAQRHHRTTGRVSPAVDPPSPRISSCGCCSAFGKNPPGKKVNPRKRPPKRRSR” as the sequence, how does the “soluble on expression in E. coli” value read?
Its value is “not soluble”.

Which “soluble on expression in E. coli” value does the source give for “MSLALEVNMLTGGPTGTYIQIGRDIAKAASACGIEMTVHESAGSLENFLGVRQRPRTQFGIVQSDVLEYLKTFAADDPEVSRAIFGVRIAFPLYDEEVHLLARREIGSLKDLDGKRVSIGVENSGTFLTASLVLDLAEVAPGERRMMNQDDSLKALLAGDIDAFFYVAGAPAKIFASPEIDGERFHLVPVAEEVLRQVYKPTQIPAGSYPFQTGPVDAIAVKAVLMTYGYDPKRNAYHRESCKAVSDIAHVVSTHFPELQQSGHPKWKQVNLTDLPAGWDIGECVNAGLEPGYRLPCDPPEPAVAAPADASAESEANRAYRRQICAVVGEGHHHHHH” here?
Its value is “soluble”.

For “MDSFLMKGYIKEANIDYSCSRGSMEDLPKWEFREIPKVPRAVMPSLSLEERKNNFNEVELGLSEEVARKEARRCLKCGCSARFTCDLRKEASNHGIVYEEPIHDRPYIPKVDDHPFIVRDHNKCISCGRCIAACAEIEGPGVLTFYMKNGRQLVGTKSGLPLRDTDCVSCGQCVTACPCAALDYRRERGKVVRAINDPKKTVVGFVAPAVRSLISNTFGVSYEEASPFMAGLLKKLGFDKVFDFTFAADLTIVEETTEFLSRIQNKGVMPQFTSCCPGWINFVEKRYPEIIPHLSTCKSPQMMMGATVKNHYAKLMGINKEDLFVVSIVPCLAKKYEAARPEFIHDGIRDVDAVLTTTEMLEMMELADIKPSEVVPQEFDEPYKQVSGAGILFGASGGVAEAALRMAVEKLTGKVLTDHLEFEEIRGFEGVKESTIDVNGTKVRVAVVSGLKNAEPIIEKILNGVDVGYDLIEVMACPGGCICGAGHPVPEKIDSLEKRQQVLVNIDKVSKYRKSQENPDILRLYNEFYGEPNSPLAHELLHTHYTPKHGDSTCSPERKKGTAAFDVQEFTICMCESCMEKGAENLYNDLSSKIRLFKMDPFVQIKRIRLKETHPGKGVYIALNGKQIEEPMLSGNIPDESESE”, which “soluble on expression in E. coli” value is on record?
Its value is “soluble”.

With “MAEEVRAFSLPSRRVVLQDEKMEQDEEHSSPTRSTSSNSDEPTETIESGDQFDVNEPIPTIETLEPVIISAASVQQLPAISLSGNNAQRTLWIGDVPTDWTEETLSQVFTECGHAPYKVKRVYVKDELKGYCFIEFITFDEARQTLYDLNGNRIPGFKDIRFNLCFANDSYNPNSEFNLHVSSVPDDMADAELYRIFDKYQSCRGAKMFRFVDGSSKGSGFVRFGNQTDQQMALVEMHRTKVGGCRIILKLAGSRGERLDRGESRQFKSQRNDRRRDEKSGQYRNGTAVPQQTQVYDAYGNPVVVPVDKNIYGTDHPWGPFPDDPDLDSIIGLDLLTTKYRPQIANKRLMIDTDQFMLDLESSRWSSIAFNTNIKKEDFEKRITDNPWTAVP” as the sequence, how does the “soluble on expression in E. coli” value read?
Its value is “not soluble”.

With “MSLDGMPAKQQHNNTGESVELHFHYPIKGKQEPKNSHLVVLIEPKIEINKVIPESYQKEFEKSLFLQLSSFLERKGYSVSQFKDASEIPQDIKEKALLVLRMDGNVAILEDIVEESDALSEEKVIDMSSGYLNLNFVEPKSEDIIHSFGIDVSKIKAVIERVELRRTNSGGFVPKTFVHRIKETDHDQAIRKIMNQAYHKVMVHITKELSKKHMEHYEKVSSEMKKRKEGHHHHHH” as the sequence, how does the “soluble on expression in E. coli” value read?
The value was “soluble”.

With “MEGVQEVEIDAPLSGWHPAEGEDASFSQSINYPASSVNMADDQNISAQIRGKIKNYAAAGKVQQGRLVVNGASMPQRIESDGSFARPYIFTEGSNSVQVISPDGQSRQKMQFYSTPGTGTIRARLRLVLSWDTDNTDLDLHVVTPDGEHAWYGNTVLKNSGALDMDVTTGYGPEIFAMPAPIHGRYQVYINYYGGRSETELTTAQLTLITDEGSVNEKQETFIVPMRNAGELTLVKSFDWLEHHHHHH” as the sequence, how does the “soluble on expression in E. coli” value read?
Its value is “not soluble”.

For “GPQDPYEINLMEELTLKGVTQYYAYVTERQKVHCLNTLFSRLQINQSIIFCNSSQRVELLAKKISQLGYSCFYIHAKMRQEHRNRVFHDFRNGLCRNLVCTDLFTRGIDIQAVNVVINFDFPKLAETYLHRIGRSGRFGHLGLAINLITYDDRFNLKSIEEQLGTEIKPIPSNIDKSLYVAEYHSEPVEDEKP”, which “soluble on expression in E. coli” value is on record?
The value was “soluble”.

For “MRCKRHTVDFSSSIGVCASCLRERLFTLAVSTAASENDDNDHRHSRISPPPLLFPRSVSPYVAPRKSDAGTGTGAGGRDSVASSNNRFFATPQVVVQSSSSEKVFESDRSFKKKKSGLSRFSSFFRTRSDDYDSRRDSCDASTVFSQPSSATTSRSWFSKVISVRSKKQSTTNTCYIEDLIASESDHHHHNQNRPRQRYCRGMSPAGDSTTNDESVEESPGRLRRTPVMGTPGRKKTATIGIGRSVSGMAFCLSPLVRAKPNCSSNWKAKFPPDFGYSGELKSPAKPHLSTAASFCGNRSKKLVDLGRVDHRR”, which “soluble on expression in E. coli” value is on record?
Its value is “soluble”.

For “NPHMWWLQDADPENNSRQASPSQESINQLVYMGFDTVVAEAALRVFGGNVQLAAQTLAHHGGSLPPDLQF”, which “soluble on expression in E. coli” value is on record?
Its value is “soluble”.

With “GMQATTATPHDIVFLFDCDNTLLDNDHVLADLRAHMMREFGAQNSARYWEIFETLRTELGYADYLGALQRYRLEQPRDTRLLLMSSFLIDYPFASRVYPGALNALRHLGARGPTVILSDGDVVFQPRKIARSGLWDEVEGRVLIYIHKELMLDQVMECYPARHYVMVDDKLRILAAMKKAWGARLTTVFPRQGHYAFDPKEISSHPPADVTVERIGDLVEMDAEWLLAEKR” as the sequence, how does the “soluble on expression in E. coli” value read?
Its value is “soluble”.

With “MGSDKIHHHHHHMKVSSKPSLTWEILTSRADRPRQEVFPFNTGRCEYFYSARYALAAALDALKLSPQQSILMPSYNCWVEVEPAVRSGAKIDWYRVKTDFSIDEDDLLARIRPETAAIFVIHYLGFPQRLENIHRICTERGIVLIEDCAHALLSNDGDVPLGLTGDMAIFSIRKTVPIPDGGCLLINNPAFSVNRPRRVRPNLFATYFVVSEMLARGSTTEPKRVNQMAYSCNFAFARLARMGLRGIHKIFQDHGDYLVYPSGNHFNEQVKHWMMSDVSSAILRGTEFQRIKERRRANFLHLLDKLIMNDRITLPILSLPEGVSPLFFPVIVQDRDRVYRQLKDQGLSGHDWWGDFHPAVPWDKYPDAVYLKTNVFGFPVHQDLSRESLGIMLAEFSQCL” as the sequence, how does the “soluble on expression in E. coli” value read?
Its value is “not soluble”.

With “MAHHHHHHMPTSSWRAEHLLIKHSGSRNPVSRRTGQPTTISYEEAVTELQKWCQSINDGKVTFEEAARQRSDCSSYARGGDLGVFGPGEMMKPFEDATKSLEVGQVSGIVVTDSGVHIIKRIA” as the sequence, how does the “soluble on expression in E. coli” value read?
Its value is “soluble”.

With “MVNYENVIVTEITETLTFFAQSVESGSKLESLMSKLHADFQSNPPIAGSYTPKRGDLVAAQFTLDNQWYRAKVERVQGSNATVLYIDYGNKETLPTNRLAALPPAFSSEKPYATEYALALVALPTDNEDKEEALRAFSEDVLNHKVQLNVELKVTGSPNLATLRDPTTKVDFGKQLVAEGLVLAEQRGERKLKELVDQYKAAQEAARVAHLAIWKYGD” as the sequence, how does the “soluble on expression in E. coli” value read?
Its value is “soluble”.

With “MKPRNINNSLPLQPLVPDQENKNKKNEEKSVNPVKITMGSGLNYIEQESLGGKYLTHDLSIKIADISEEIIQQAILSAMSIYKFSITDDLMSMAVNELIKLTKIENNVDLNKFTTICTDVLSPRVTRHNKEKNKRHSTLLKNPLFNFHLEHHHHHH” as the sequence, how does the “soluble on expression in E. coli” value read?
The value was “soluble”.

With “MVKITNNVHQFGYEPAEFLSKKLTFTDIVHPEDLDRIVKEMVAFLKNDIVYFEQDYRIFTKGGDIRWVYEKTILKTDDTGLPTLAKGYLLDITER” as the sequence, how does the “soluble on expression in E. coli” value read?
Its value is “not soluble”.
